Source: IntAct's records for PubMed 20696397

B1: E3 ubiquitin-protein ligase RING2 (Homo sapiens), Q99496 (parent)
chain: MSQAVQTNGTQPLSKTWELSLYELQRTPQEAITDGLEIVVSPRSLHSELMCPICLDMLKNTMTTKECLHRFCADCIITALRSGNKECPTCRKKLVSKRSLRPDPNFDALISKIYPSRDEYEAHQERVLARINKHNNQQALSHSIEEGLKIQAMNRLQRGKKQQIENGSGAEDNGDSSHCSNASTHSNQEAGPSNKRTKTSDDSGLELDNNNAAMAIDPVMDGASEIELVFRPHPTLMEKDDSAQTRYIKTSGNATVDHLSKYLAVRLALEELRSKGESNQMNLDTASEKQYTIYIATASGQFTVLNGSFSLELVSEKYWKVNKPMELYYAPTKEHK
partner: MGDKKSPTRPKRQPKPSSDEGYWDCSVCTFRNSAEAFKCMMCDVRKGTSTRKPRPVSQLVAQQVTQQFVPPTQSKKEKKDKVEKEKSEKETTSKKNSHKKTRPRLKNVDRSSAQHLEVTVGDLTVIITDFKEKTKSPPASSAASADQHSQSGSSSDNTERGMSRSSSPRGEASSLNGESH
B2: Chromobox protein homolog 7 (Homo sapiens), O95931 (parent)
chain: MELSAIGEQVFAVESIRKKRVRKGKVEYLVKWKGWPPKYSTWEPEEHILDPRLVMAYEEKEERDRASGYRKRGPKPKRLLLQRLYSMDLRSSHKAKGKEKLCFSLTCPLGSGSPEGVVKAGAPELVDKGPLVPTLPFPLRKPRKAHKYLRLSRKKFPPRGPNLESHSHRRELFLQEPPAPDVLQAAGEWEPAAQPPEEEADADLAEGPPPWTPALPSSEVTVTDITANSITVTFREAQAAEGFFRDRSGKF

Variants of: B1
Details: with YAF2, Q8IY57-1

Question: How did the “effect of a mutation on the interaction” value turn out when H258A was run?
Answer: disrupting interaction

Question: Y262A was tested. Which “effect of a mutation on the interaction” value did it give?
Answer: disrupting interaction

Variants of: B2
Details: with ring2_human RNF2, Q99496

Question: With F234D as the variant, how does the “effect of a mutation on the interaction” value read?
Answer: disrupting interaction
